The text below walks through data of article doi:10.1101/2024.03.06.583760 (bioRxiv, 2024).

“And” between values parts separate entries of the source, which are not always exact repeats. Equal values may be shown once.

This data set deals with the molecule itself. Briefly: cryo-EM 2D classification.

B1: α-latrotoxin (natural protein)
chain: EGEDLTLEEKAEICSELELQQKYVDIASNIIGDLSSLPIAGKIAGTIAAAAMTATHVASGRLDIEQTLLGCSDLPFDQIKEVLENRFNEIDRKLDSHSAALEEITKLVEKSISVVEKTRKQMNKRFDEVMKSIQDAKVSPIISKINNFARYFDTEKERIRGLKLNDYILKLEEPNGILLHFKESRTPTDDSLQAPLFSIIEEGYAVPKSIDDELAFKVLYALLYGTQTYVSVMFFLLEQYSFLANHYYEKGYLEKYDEYFNSLNNVFLDFKSSLVGTGTSNNEGLLDRVLQVLMTVKNSEFLGLEKNGVDEMLNEKINLFNKIKEEIEGKQKMTLSETPENFAQISFDKDITTPIGDWRDGREVRYAVQYASETLFSKISHWSDPVSVREKACPTLRMPVDQTRRNVLVFRKFDSSKPQLVGEITPYLSNFIDIDRDLYNAASNPDSAVGFKEFTKLNYDGANIRATFDHGRTVFHAAAKSGNDKIMFGLTFLAKSTELNQPDKKGYTPIHVAADSGNAGIVNLLIQRGVSINSKTYHFLQTPLHLAAQRGFVTTFQRLMESPEININERDKDGFTPLHYAIRGGERILEAFLNQISIDVNAKSNTGLTPFHLAIIKNDWPVASTLLGSKKVDINAVDENNITALHYAAILGYLETTKQLINLKEINANVVSSPGLLSALHYAILYKHDDVASFLMRSSNVNVNLKALGGITPLHLAVIQGRKQILSLMFDIGVNIEQKTDEKYTPLHLAAMSKYPELIQILLDQGSNFEAKTNSGATPLHLATFKGKSQAALILLNNEVNWRDTDENGQMPIHGAAMTGLLDVAQAIISIDATVVDIEDKNSDTPLNLAAQNSHIDVIKYFIDQGADINTRNKKGLAPLLAFSKKGNLDMVKYLFDKNANVYIADNDGMNFFYYAVQNGHLNIVKYAMSEKDKFEWSNTDNNRRDECPNEECAISHFAVCDAVQFDRIEIVKYFVGTLGNFAICGPLHQAARYGHLDIVKYLVEEEFLSVDGSKTDTPLCYASENGHFTVVQYLVSNGAKVNHDCGNGMTAIDKAITKNHLQVVQFLAANGVDFRRKNSRGTTPFLTAVAENALHIAEYLIREKRQDININEQNVDKDTALHLAVYYKNLQMIKLLIKYGIDVTIRNAYDKTALDIAIDAKFSNIVEYLKTKSGKFRR
As for B1, the “stoichiometry N” value is 2 and 3 and 4.

As a reminder, the stoichiometry N is the number of molecules, sites or subunits per partner or assembly.
